In patent US20250152742A1, “COMPOSITIONS AND METHODS FOR NEUROLOGICAL DISEASES” (Trames Bio, Inc., priority 2022, published 2025):

Test system: engineered chimeric receptor SEQ ID NO: 33 and its mutants (human α7-nAChR ligand binding domain / human GlyRα1 ion pore domain) in Lenti-X 293T cells
Assay: YFP fluorescence quenching anion reporter plate reader assay (percent quench, EC50)
Format: cell-based
Details: for YFP fluorescence quenching using CNL001 (percent quench): receptor named in row; for YFP fluorescence quenching using Varenicline, 3 nM var: ligand Varenicline 3 nM; for YFP fluorescence quenching using Varenicline, 30 nM var: ligand Varenicline 30 nM; for YFP fluorescence quenching using Varenicline, 300 nM var: ligand Varenicline 300 nM; for YFP fluorescence quenching using Varenicline, 500 nM var: ligand Varenicline 500 nM; for YFP fluorescence quenching using Varenicline, 1 uM var: ligand Varenicline 1 uM
How it was run: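 Percent quench compares mean YFP signal over the final 10 s with the 15 s baseline before ligand, added in iodide-containing extracellular solution (pH 7.2). Cells were LX293T carrying a YFP anion reporter, transiently transfected with the channel construct; plates were preincubated 30 min at 37 °C.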

B1: CODA1027: engineered receptor: R101F, L131D in SEQ ID NO: 33 (protein)
chain: MRCSPGGVWLALAASLLHVSLQGEFQRKLYKELVKNYNPLERPVANDSQPLTVYFSLSLLQIMDVDEKNQVLTTNIWLQMSWTDHYLQWNVSEYPGVKTVFFPDGQIWKPDILLYNSADERFDATFHTNVDVNSSGHCQYLPPGIFKSSCPMDLKNFPMDVQTCKLKFGSWSYGGWSLDLQMQEADISGYIPNGEWDLVGIPGKRSERFYECCKEPYPDVTFTVTMRRRMGYYLIQMYIPSLLIVILSWISFWINMDAAPARVGLGITTVLTMTTQSSGSRASLPKVSYVKAIDIWMAVCLLFVFSALLEYAAVNFVSRQHKELLRFRRKRRHHKSPMLNLFQEDEAGEGRFNFSAYGMGPACLQAKDGISVKGANNSNTTNPPPAPSKSPEEMRKLFIQRAKKIDKISRIGFPMAFLIFNMFYWIIYKIVRREDVHNQ
modifications: synthetic sequence of chimeric LGIC
In the case of B1, the “YFP fluorescence quenching using CNL001 (percent quench)” value (1 nM CNL001, first column so headed) is reported as 24.049%, the “YFP fluorescence quenching using CNL001 (percent quench)” value (1 nM CNL001, second column so headed) is reported as 36.755% and the “YFP fluorescence quenching using TC-5619/Bradanicline (percent quench)” value (1 nM brd (TC-5619/Bradanicline)) is reported as −10.07%. For the same molecule, the “YFP fluorescence quenching using TC-5619/Bradanicline (percent quench)” value (3 nM brd (TC-5619/Bradanicline)) was −0.8%, the “YFP fluorescence quenching using CNL001 (percent quench)” value (10 nM CNL001, first column so headed) was 52.927% and the “YFP fluorescence quenching using CNL001 (percent quench)” value (10 nM CNL001, second column so headed) was 61.449%. For the same molecule, the “YFP fluorescence quenching using TC-5619/Bradanicline (percent quench)” value (10 nM brd (TC-5619/Bradanicline)) was 1.74%, the “YFP fluorescence quenching using TC-6683 (percent quench)” value (30 nM TC-6683) was 1.189% and the “YFP fluorescence quenching using TC-5619/Bradanicline (percent quench)” value (30 nM brd (TC-5619/Bradanicline)) was 53.95%. The “YFP fluorescence quenching using CNL001 (percent quench)” value (50 nM CNL001, first column so headed) was 67.308%, the “YFP fluorescence quenching using CNL001 (percent quench)” value (50 nM CNL001, second column so headed) was 68.77% and the “YFP fluorescence quenching using ABT-126 (percent quench)” value (50 nM abt (ABT-126)) was −11.89%. For the same molecule, the “YFP fluorescence quenching using CNL001 (percent quench)” value (100 nM CNL001, first column so headed) was 69.049%, the “YFP fluorescence quenching using CNL001 (percent quench)” value (100 nM CNL001, second column so headed) was 71.613% and the “YFP fluorescence quenching (percent quench)” value (100 nM CNL002) was 7.75%. For the same molecule, the “YFP fluorescence quenching using ABT-126 (percent quench)” value (100 nM abt (ABT-126)) was −16.07%, the “YFP fluorescence quenching using AZD-0328 (percent quench)” value (100 nM azd0328) was −4.76% and the “YFP fluorescence quenching using TC-6683 (percent quench)” value (300 nM TC-6683) was 0.939%. For the same molecule, the “YFP fluorescence quenching using ABT-126 (percent quench)” value (300 nM abt (ABT-126)) was −11.21%, the “YFP fluorescence quenching using AZD-0328 (percent quench)” value (300 nM azd0328) was −7.52% and the “YFP fluorescence quenching using TC-5619/Bradanicline (percent quench)” value (300 nM brd (TC-5619/Bradanicline)) was 76.74%. For the same molecule, the “YFP fluorescence quenching using CNL001 (percent quench)” value (1 uM CNL001, first column so headed) was 71.811%, the “YFP fluorescence quenching using CNL001 (percent quench)” value (1 uM CNL001, second column so headed) was 69.907% and the “YFP fluorescence quenching (percent quench)” value (1 uM CNL002) was 61.97%. For the same molecule, the “YFP fluorescence quenching using ABT-126 (percent quench)” value (1 uM abt (ABT-126)) was −9.38%, the “YFP fluorescence quenching using TC-6683 (percent quench)” value (3 uM TC-6683) was 1.327% and the “YFP fluorescence quenching (percent quench)” value (10 uM ach (acetylcholine)) was −1.62%. For the same molecule, the “YFP fluorescence quenching (percent quench)” value (30 uM CNL002) was 65.77%, the “YFP fluorescence quenching using TC-6683 (percent quench)” value (30 uM TC-6683) was −0.845% and the “YFP fluorescence quenching using AZD-0328 (percent quench)” value (30 uM azd0328) was 74.9%. The “YFP fluorescence quenching (percent quench)” value (50 uM ach (acetylcholine)) was −1.6%, the “YFP fluorescence quenching using TC-6683 (percent quench)” value (100 uM TC-6683) was −3.136% and the “YFP fluorescence quenching (percent quench)” value (100 uM ach (acetylcholine)) was −2.62%. For the same molecule, the “YFP fluorescence quenching (percent quench)” value (300 uM ach (acetylcholine)) was −6.12%, the “YFP fluorescence quenching (percent quench)” value (500 uM ach (acetylcholine)) was −7.71% and the “YFP fluorescence quenching (percent quench)” value (1 mM ach (acetylcholine)) was −5.73%. The “YFP fluorescence quenching (percent quench)” value (3 mM ach (acetylcholine)) was 33.69%, the “YFP fluorescence quenching using Facinicline, 30 nM fac” value (ligand Facinicline 30 nM) was −10.05 and the “YFP fluorescence quenching using Facinicline, 300 nM fac” value (ligand Facinicline 300 nM) was −12.54. The “YFP fluorescence quenching using Facinicline, 30 uM fac” value (ligand Facinicline 30 uM) was 70.96, the “YFP fluorescence quenching using TC-6987, 1 uM tc6987” value (ligand TC-6987 1 uM) was 0.88 and the “YFP fluorescence quenching using TC-6987, 10 uM tc6987” value (ligand TC-6987 10 uM) was 56.27. For the same molecule, the “YFP fluorescence quenching using TC-6987, 500 uM tc6987” value (ligand TC-6987 500 uM) was 71.3, the “YFP fluorescence quenching using Varenicline, 3 nM var” value (first column) was −3.367 and the “YFP fluorescence quenching using Varenicline, 3 nM var” value (second column) was −0.431. For the same molecule, the “YFP fluorescence quenching using Varenicline, 30 nM var” value (first column) was −0.761, the “YFP fluorescence quenching using Varenicline, 30 nM var” value (second column) was 2.989 and the “YFP fluorescence quenching using Varenicline, 300 nM var” value (first column) was 2.966. For the same molecule, the “YFP fluorescence quenching using Varenicline, 300 nM var” value (second column) was 10.211, the “YFP fluorescence quenching using Varenicline, 500 nM var” value (first column) was 15.278 and the “YFP fluorescence quenching using Varenicline, 500 nM var” value (second column) was 20.84. The “YFP fluorescence quenching using Varenicline, 1 uM var” value (first column) was 37.104 and the “YFP fluorescence quenching using Varenicline, 1 uM var” value (second column) was 42.439.
